Source: article PMC3755756

Target: ubiquitin (15N-Ub) (UniProt P0CG48)
Test: NMR titration

Kd relative to the V domains of Alix and HD-PTP (~50 μM): 5 fold
Substance: V domain of S. castelli Bro1 (domain or fragment)
